Usually Kd stands for a measure of binding affinity in units of concentration. High values mean a looser complex, low ones a tighter complex.

Common to all, as to assay: fluorescence polarisation
In experiment [1] the target is fluorescent peptide corresponding to the SH3 binding motif of FraC (Anabaena sp. strain PCC 7120).
Experiment [2] deals with SepJ peptide bearing proline-to-serine substitutions (Anabaena sp. strain PCC 7120).
In experiment [3] the target is fluorescent peptide corresponding to the SH3 binding motif of SepJ (Anabaena sp. strain PCC 7120).

For “His-tagged SjcF1 (All1861 without transmembrane domain) (domain or fragment)”, the Kd in experiment [1] is 12 µM; in experiment [2], greater than 2000 µM; in experiment [3], 39 µM.

These data come from paper PMC4488944.
